The results in this text go back to article PMC5674899.

The target in assay [1] is GFP-tagged WT NuMA-tail II (aa 1868–2091) (human) (UniProt Q14980). Kind of assay: ITC.
Assay [2] shares this target. Description: TIRF microscopy of GFP-tagged protein on immobilised microtubules.
Assay [3] deals with NuMA-tail (1970–2091)—GFP (human) (UniProt Q14980). Described as above.

In assay [1], “1:1 stoichiometric mixture of full-length Importin-α and Importin-β (from UniProt P52292 1-529; Q14974 1-876) (complex)” showed a Kd of 2.2 µM. The fold reduction of the GFP signal of m1 on microtubules in assay [2] is 50 fold. Besides, the fold reduction of the microtubule binding of m17 in assay [3] is 80 fold.

In assay [1], “Importin-α lacking the Importin-β binding (IBB) domain (aa 70–524), mouse (from UniProt P52293 70-524) (domain or fragment)” came in with a Kd of 0.25 µM.
